Measured values as given in patent US20060134741.

T1: Sentrinized PML (construct not stated), P29590
T1 chain: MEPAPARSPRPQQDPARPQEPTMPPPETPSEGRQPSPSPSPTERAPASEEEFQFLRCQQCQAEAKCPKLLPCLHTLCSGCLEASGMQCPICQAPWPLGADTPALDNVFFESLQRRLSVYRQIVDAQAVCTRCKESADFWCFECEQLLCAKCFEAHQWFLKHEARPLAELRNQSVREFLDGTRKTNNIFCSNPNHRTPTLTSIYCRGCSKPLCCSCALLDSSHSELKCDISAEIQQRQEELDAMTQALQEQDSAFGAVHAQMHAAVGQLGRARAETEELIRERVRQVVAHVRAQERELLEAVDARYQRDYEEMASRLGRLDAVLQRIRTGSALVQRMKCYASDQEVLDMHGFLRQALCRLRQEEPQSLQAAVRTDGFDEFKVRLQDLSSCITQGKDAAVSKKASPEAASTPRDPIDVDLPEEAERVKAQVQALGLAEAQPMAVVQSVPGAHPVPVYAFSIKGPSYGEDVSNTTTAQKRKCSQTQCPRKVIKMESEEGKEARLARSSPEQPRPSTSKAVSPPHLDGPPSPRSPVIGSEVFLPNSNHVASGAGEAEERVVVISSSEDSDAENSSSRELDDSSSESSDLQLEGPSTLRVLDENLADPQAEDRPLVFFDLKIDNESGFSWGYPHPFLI

T2: sentrinized RanGAP (construct not stated), P46060
T2 chain: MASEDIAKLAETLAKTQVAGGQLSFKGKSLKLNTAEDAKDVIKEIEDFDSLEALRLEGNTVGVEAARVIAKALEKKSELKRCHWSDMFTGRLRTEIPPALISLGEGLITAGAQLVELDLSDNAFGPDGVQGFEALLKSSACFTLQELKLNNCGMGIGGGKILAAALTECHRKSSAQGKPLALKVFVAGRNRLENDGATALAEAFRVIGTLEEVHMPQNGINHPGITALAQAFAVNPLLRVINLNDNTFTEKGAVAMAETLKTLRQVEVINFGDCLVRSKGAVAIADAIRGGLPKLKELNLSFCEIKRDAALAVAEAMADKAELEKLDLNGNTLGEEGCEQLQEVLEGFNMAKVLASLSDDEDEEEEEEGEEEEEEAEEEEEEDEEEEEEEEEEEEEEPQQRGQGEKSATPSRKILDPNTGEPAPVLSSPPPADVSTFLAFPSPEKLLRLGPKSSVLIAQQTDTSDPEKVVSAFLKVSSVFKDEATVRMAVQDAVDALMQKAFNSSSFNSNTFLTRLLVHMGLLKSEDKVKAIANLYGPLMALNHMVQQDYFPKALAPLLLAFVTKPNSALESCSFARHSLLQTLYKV


Tests used:
[1] = tested on: sentrin-modified proteins (Sentrin-1 conjugates)
[2] = molecular target: T1, Sentrinized PML (construct not stated), …
[3] = molecular target: T2, sentrinized RanGAP (construct not …)

| Molecule | protease activity against sentrin-modified proteins [1] | effect on sentrinized PML [2] | effect on sentrinized RanGAP [3] |
| --- | --- | --- | --- |
| HsUlp1 (full length, 371 aa) | extensive studies indicated that HsUlp I had no activity against sentrin-modified proteins | – | – |
| SENP2 (protein) MVTSACNGTRNVAPSGEVFSNSSSCELTGSGSWNNMLKLGNKSPNGISDYPKIRVTVTRDQPRRVLPSFGFTLNSEGCNRRPGGRRHSKGNPESSLMWKPQEQAVTEMISEESGKGLRRPHCTVEEGVQKEEREKYRKLLERLKESGHGNSVCPVTSNYHSSQRSQMDTLKTKGWGEEQNHGVKTTQFVPKQYRLVETRGPLCSLRSEKRCSKGKITDTEKMVGIRFENESRRGYQLEPDLSEEVSARLRLGSGSNGLLRRKVSIIETKEKNCSGKERDRRTDDLLELTEDMEKEISNALGHGPQDEILSSAFKLRITRGDIQTLKNYHWLNDEVINFYMNLLVERNKKQGYPALHVFSTFFYPKLKSGGYQAVKRWTKGVNLFEQEIILVPIHRKVHWSLVVIDLRKKCLKYLDSMGQKGHRICEILLQYLQDESKTKRNSDLNLLEWTHHSMKPHEIPQQLNGSDCGMFTCKYADYISRDKPITFTQHQMPLFRKKMVWEILHQQLL | – | Sentrinized PML, a tumor suppressor that resides in the nucleus, was selectively affected by SENP2 | sentrinized RanGAP remained intact |
